Consider one molecule from paper PMC8318917 (The Journal of Biological Chemistry, 2021).

The assay deals with T1, human TRADD death domain (199–312) (human, UniProt Q15628 199-312).
T1 sequence: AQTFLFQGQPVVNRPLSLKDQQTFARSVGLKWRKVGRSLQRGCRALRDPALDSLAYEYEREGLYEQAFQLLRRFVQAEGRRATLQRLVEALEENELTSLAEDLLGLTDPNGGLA
Briefly: NMR solution structure.

B1: human p75 neurotrophin receptor death domain (330–427) (domain or fragment)
chain: KGDGGLYSSLPPAKREEVEKLLNGSAGDTWRHLAGELGYQPEHIDSFTHEACPVRALLASWATQDSATLDALLAALRRIQRADLVESLCSESTATSPV
Turning to B1, the binding result is recorded as “binds”.
